The values that follow come from publication PMC9482650, “Quantitative fragmentomics allow affinity mapping of interactomes” (Nature Communications, 2022).

Test in all cases: holdup assay
Holding throughout (set-up): key: below the threshold = too weak to quantify, mostly under pKd 3.1 to 4
What all share (conditions): plain residues with an end cap or a label only (N-terminal biotin on a linker: ado-ado)

Assay [1] addresses T1, PDZD7_3, Q9H5P4.
T1 sequence (Q9H5P4 857-944, limits assumed, looked up): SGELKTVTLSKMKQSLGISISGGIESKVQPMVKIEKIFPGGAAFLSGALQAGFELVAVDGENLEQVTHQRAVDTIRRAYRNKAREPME

Assay [2] concerns the target T2, DFNB31_2, Q9P202.
T2 sequence (Q9P202 274-371, limits assumed, looked up): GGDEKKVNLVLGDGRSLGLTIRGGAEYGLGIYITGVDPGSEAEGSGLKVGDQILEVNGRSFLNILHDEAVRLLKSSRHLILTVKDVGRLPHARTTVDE

For assay [3], the target named is T3, HTRA3, P83110.
T3 sequence (P83110 354-453, limits assumed, looked up): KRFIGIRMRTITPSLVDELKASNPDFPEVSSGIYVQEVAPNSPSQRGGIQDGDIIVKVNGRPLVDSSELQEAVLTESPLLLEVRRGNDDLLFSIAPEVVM

Assay [4] deals with PARD3_3, Q8TEW0.
The target in assay [5] is T4, PTPN13_1, Q12923.
T4 sequence (Q12923 1088-1188, limits assumed, looked up): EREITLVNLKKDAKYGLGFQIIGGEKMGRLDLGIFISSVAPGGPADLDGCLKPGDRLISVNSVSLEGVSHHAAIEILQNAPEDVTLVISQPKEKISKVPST

Assay [6] concerns the target MAGI2_2, Q86UL8.
Assay [7] deals with T5, GRIP1_4, Q9Y3R0.
T5 sequence (Q9Y3R0 467-571, limits assumed, looked up): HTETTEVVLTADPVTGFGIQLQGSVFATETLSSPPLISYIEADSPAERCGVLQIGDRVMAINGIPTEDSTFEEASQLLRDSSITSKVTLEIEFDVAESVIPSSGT

Assay [8] has as its target T6, DFNB31_1, Q9P202.
T6 sequence (Q9P202 135-233, limits assumed, looked up): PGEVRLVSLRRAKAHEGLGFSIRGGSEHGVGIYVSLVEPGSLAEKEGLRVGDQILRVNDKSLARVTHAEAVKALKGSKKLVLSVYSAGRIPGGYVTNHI

In assay [9] the target is DLG4_2, P78352.
For assay [10], the target named is GRIP2_7, Q9C0E4.
Assay [11] has as its target DLG1_2, Q12959.
The target of assay [12] is PDLIM1, O00151.
Assay [13] deals with GRASP, Q7Z6J2.
In assay [14] the target is FRMPD3, Q5JV73.
Assay [15] concerns the target T7, TIAM2, Q8IVF5.
T7 sequence (Q8IVF5 885-986, limits assumed, looked up): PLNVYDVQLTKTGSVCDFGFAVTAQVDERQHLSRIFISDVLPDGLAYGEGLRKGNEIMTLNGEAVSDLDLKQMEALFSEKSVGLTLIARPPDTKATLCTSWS

Assay [16] concerns the target T8, SNTA1, Q13424.
T8 sequence (Q13424 82-180, limits assumed, looked up): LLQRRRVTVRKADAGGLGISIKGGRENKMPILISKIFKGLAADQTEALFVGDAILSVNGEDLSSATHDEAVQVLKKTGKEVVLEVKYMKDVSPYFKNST

The target in assay [17] is T9, DFNB31_3, Q9P202.
T9 sequence (Q9P202 811-907, limits assumed, looked up): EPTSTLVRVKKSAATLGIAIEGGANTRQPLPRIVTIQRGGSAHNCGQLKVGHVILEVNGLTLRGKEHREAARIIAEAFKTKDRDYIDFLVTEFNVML

The target in assay [18] is T10, APBA1_1, Q02410.
T10 sequence (Q02410 651-752, limits assumed, looked up): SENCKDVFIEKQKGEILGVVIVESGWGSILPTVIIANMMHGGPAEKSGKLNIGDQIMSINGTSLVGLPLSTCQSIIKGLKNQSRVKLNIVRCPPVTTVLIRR

For assay [19], the target named is T11, DVL3, Q92997.
T11 sequence (Q92997 244-331, limits assumed, looked up): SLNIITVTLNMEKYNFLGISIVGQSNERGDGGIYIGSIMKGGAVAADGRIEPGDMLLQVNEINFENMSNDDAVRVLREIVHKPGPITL

The target in assay [20] is LDB3, O75112.
Assay [21] addresses T12, CARD11, Q9BXL7.
T12 sequence (Q9BXL7 662-765, limits assumed, looked up): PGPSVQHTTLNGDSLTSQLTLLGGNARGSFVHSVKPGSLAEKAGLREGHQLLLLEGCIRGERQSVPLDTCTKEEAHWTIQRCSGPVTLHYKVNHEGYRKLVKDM

The target of assay [22] is T13, LIN7B, Q9HAP6.
T13 sequence (Q9HAP6 88-185, limits assumed, looked up): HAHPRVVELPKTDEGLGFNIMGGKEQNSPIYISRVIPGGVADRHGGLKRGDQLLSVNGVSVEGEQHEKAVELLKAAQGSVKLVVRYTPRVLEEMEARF

Assay [23] has as its target SCRIB_1, Q14160.
In assay [24] the target is T14, LIN7A, O14910.
T14 sequence (O14910 103-200, limits assumed, looked up): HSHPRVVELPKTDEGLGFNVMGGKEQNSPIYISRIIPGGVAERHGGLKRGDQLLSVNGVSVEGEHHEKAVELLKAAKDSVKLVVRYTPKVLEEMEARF

Chain of PDLIM1, O00151 (O00151 1-87): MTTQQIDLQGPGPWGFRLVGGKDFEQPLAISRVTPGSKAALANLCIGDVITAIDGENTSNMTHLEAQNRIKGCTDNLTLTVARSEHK
Chain of LDB3, O75112 (O75112 1-94): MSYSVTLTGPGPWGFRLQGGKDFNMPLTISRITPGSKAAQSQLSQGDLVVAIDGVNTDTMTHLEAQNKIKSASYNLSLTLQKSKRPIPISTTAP
Chain of MAGI2_2, Q86UL8 (Q86UL8 410-522): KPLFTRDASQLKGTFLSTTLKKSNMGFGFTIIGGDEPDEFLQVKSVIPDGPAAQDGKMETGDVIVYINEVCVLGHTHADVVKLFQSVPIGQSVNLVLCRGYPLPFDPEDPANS
Chain of DLG4_2, P78352 (P78352 155-259): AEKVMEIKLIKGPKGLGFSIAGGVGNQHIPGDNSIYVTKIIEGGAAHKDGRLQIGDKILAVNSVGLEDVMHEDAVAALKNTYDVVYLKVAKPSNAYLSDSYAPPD
Chain of SCRIB_1, Q14160 (Q14160 718-814): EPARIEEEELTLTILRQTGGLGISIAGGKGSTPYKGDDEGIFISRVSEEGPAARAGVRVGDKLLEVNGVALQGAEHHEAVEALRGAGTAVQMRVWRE
Chain of GRIP2_7, Q9C0E4 (Q9C0E4 934-1023): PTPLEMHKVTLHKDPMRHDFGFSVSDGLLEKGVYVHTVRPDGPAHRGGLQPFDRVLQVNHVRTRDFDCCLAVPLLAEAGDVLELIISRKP
Chain of GRASP, Q7Z6J2 (Q7Z6J2 96-193): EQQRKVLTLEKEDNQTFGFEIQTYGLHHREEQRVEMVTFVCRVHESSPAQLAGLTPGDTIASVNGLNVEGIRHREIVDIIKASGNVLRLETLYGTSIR
Chain of PARD3_3, Q8TEW0 (Q8TEW0 582-685): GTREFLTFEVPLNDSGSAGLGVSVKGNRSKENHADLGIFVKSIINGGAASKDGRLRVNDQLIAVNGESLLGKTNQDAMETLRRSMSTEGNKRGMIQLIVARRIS
Chain of FRMPD3, Q5JV73 (Q5JV73 12-100): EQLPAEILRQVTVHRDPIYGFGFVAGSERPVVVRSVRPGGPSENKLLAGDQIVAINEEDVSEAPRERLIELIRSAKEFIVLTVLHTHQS
Chain of DLG1_2, Q12959 (Q12959 314-412): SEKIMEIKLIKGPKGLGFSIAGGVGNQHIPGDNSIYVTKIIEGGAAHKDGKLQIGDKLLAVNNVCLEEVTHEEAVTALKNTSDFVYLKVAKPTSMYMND

As usually defined, the pKd is the negative decadic logarithm of the Kd, by convention in mol/L. For the molecule ASGLDKRDYV [CLDN9, O95484], the negative-log Kd (pKd) entry in assay [1] was “below the threshold”; in [2], “below the threshold”; in assay [3], 3.79; in [4] it was “below the threshold”; in [5] it was “below the threshold”; in [6], “below the threshold”. Moreover, the pKd result in [7], in assay [8], in assay [9], in assay [10], in [11] and in assay [12] was “below the threshold” throughout. The pKd result in assay [13], in [14], in assay [15], in assay [16], in assay [17] and in assay [18] was “below the threshold” each time. Besides, the pKd entry in assay [19], in assay [20], in [21], in assay [22], in assay [23] and in assay [24] was “below the threshold” each time.
Consider EWTDERQSKV [GAB3, Q8WWW8], for which the pKd in assay [1] is 3.82; in [2], 3.75; in [3], “below the threshold”; in assay [4], “below the threshold”; in assay [5] it was “below the threshold”; in [6], “below the threshold”. Further, the pKd entry is “below the threshold” in [7]; 3.94 in assay [8]; 4.03 in assay [9]; “below the threshold” in assay [10]; 4.01 in assay [11]; “below the threshold” in assay [12]. For the same molecule, the pKd in [13] was 3.84; in [14] it was “below the threshold”; in [15], “below the threshold”; in [16], 4.43; in assay [17], “below the threshold”; in [18] it was “below the threshold”. Besides, the pKd entry in assay [19], in [20], in [21], in [22], in assay [23] and in assay [24] was “below the threshold” throughout.
PDSNPEESSV [SEMA4C, Q9C0C4]: the pKd was 3.9 in assay [1]; “below the threshold” in [2]; “below the threshold” in [3]; “below the threshold” in [4]; “below the threshold” in [5]; “below the threshold” in assay [6]. In addition, the pKd entry in [7] was “below the threshold”; in [8], 4; in assay [9], 4.22; in [10], “below the threshold”; in assay [11] it was 4.3; in assay [12], 3.54. For the same molecule, the pKd is 3.91 in assay [13]; “below the threshold” in assay [14]; “below the threshold” in [15]; 4.25 in [16]; “below the threshold” in [17]; “below the threshold” in [18]. Moreover, the pKd result in assay [19] is “below the threshold”; in assay [20] it was “below the threshold”; in assay [21], “below the threshold”; in assay [22], “below the threshold”; in [23] it was 4.15; in assay [24], “below the threshold”.
Regarding FTLPAESSEI [PLEKHG7, Q6ZR37], the pKd in assay [1] is 3.97; in [2] it was “below the threshold”; in assay [3] it was “below the threshold”; in assay [4], “below the threshold”; in assay [5], “below the threshold”; in [6], “below the threshold”. Moreover, the pKd result is “below the threshold” in [7]; 4.39 in [8]; “below the threshold” in assay [9]; “below the threshold” in [10]; “below the threshold” in assay [11]; “below the threshold” in assay [12]. Moreover, the pKd in assay [13] is 3.98; in assay [14], “below the threshold”; in assay [15], 4.04; in assay [16], “below the threshold”; in assay [17], 3.63; in [18] it was “below the threshold”. For the same molecule, the pKd entry in [19] was “below the threshold”; in [20], “below the threshold”; in [21], “below the threshold”; in assay [22] it was 3.61; in [23], “below the threshold”; in assay [24], “below the threshold”.
